Data as given in publication PMC4461205, “Structural bases for N-glycan processing by mannoside phosphorylase” (Acta Crystallographica Section D: Biological Crystallography, 2015).
Values belong to the compound of their own block, whether it stands above or below them.

What was measured:
[1] = target: T1, Uhgb_MP (uncultured organism, UniProt D9ZDQ9); test: X-ray crystal structure, co-crystallization; format: binding; parameters: homohexamer, 240 kDa by SEC-MALLS; settings: +1 subsite; with phosphate, glycerol in -1 subsite; co-crystallized with 5 mM N-acetylglucosamine, pH 7.0; 4C1 chair; 1.60 A; also with mannose in 4udk (1.76 A)
[2] = target: T1, Uhgb_MP; settings: catalytic site; phosphate from 20 mM potassium phosphate buffer pH 7.0; glycerol in -1 subsite; 1.80 A; also in 4udj, 4udg, 4udk
[3] = target: Uhgb_MP, β-1,4-mannopyranosyl-chitobiose phosphorylase (GH130_2 mannoside phosphorylase) (uncultivated Bacteroides bacterium (human gut)); test: crystal structure; sitting-drop vapour diffusion at 12°C; protein 9-12 mg/ml in 20 mM potassium phosphate pH 7.0, 150 mM NaCl, with or without 5 mM mannose and/or 5 mM N-acetylglucosamine; PEG 3350, ammonium chloride; space group P212121, six molecules per asymmetric unit
[4] = target: Uhgb_MP, β-1,4-mannopyranosyl-chitobiose phosphorylase (GH130_2 mannoside phosphorylase) (uncultivated Bacteroides bacterium (human gut)); test: SAXS (SEC-SAXS); Bio SEC3 300 column on line with SAXS, 10°C; phosphate buffer or Tris-glycerol buffer (aggregation seen in both); hexamer read from data in Tris-glycerol buffer with 1 mM TCEP; ab initio envelope and rigid-body modelling
[5] = target: Uhgb_MP, β-1,4-mannopyranosyl-chitobiose phosphorylase (GH130_2 mannoside phosphorylase) (uncultivated Bacteroides bacterium (human gut)); test: SEC-MALS; 30 µl of gel-filtered Uhgb_MP at 6 mg/ml on Superdex 200 HR 10/300 in 20 mM potassium phosphate pH 7.0, 150 mM NaCl, 0.4 ml/min, 15°C

T1 sequence (D9ZDQ9 entry or part of it): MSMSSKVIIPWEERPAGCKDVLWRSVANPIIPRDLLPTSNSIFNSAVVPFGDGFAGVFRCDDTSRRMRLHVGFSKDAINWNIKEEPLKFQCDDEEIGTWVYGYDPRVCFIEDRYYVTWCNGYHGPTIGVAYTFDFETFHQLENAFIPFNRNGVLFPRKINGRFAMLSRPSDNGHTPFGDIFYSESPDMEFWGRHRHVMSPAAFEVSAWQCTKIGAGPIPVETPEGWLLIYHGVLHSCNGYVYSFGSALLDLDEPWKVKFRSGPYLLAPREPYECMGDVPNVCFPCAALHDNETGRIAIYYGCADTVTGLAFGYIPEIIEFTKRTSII

Compound: CC(=O)N[C@H]1C(O)O[C@H](CO)[C@@H](O)[C@@H]1O (some centres unmarked) [N-acetylglucosamine]
- X-ray crystal structure, co-crystallization [1]: complex with N-acetylglucosamine alone (PDB entry 4udg

Compound: O=P(O)(O)O [inorganic phosphate]
- X-ray crystal structure [2]: Pi is deeply buried in the catalytic site, strongly stabilized by hydrogen bonds

- stoichiometry N [3]: 6
- stoichiometry N [4]: 6
- stoichiometry N [5]: 6.16
Compound: Uhgb_MP, β-1,4-mannopyranosyl-chitobiose phosphorylase (GH130_2 mannoside phosphorylase) (enzyme)
